Article PMC3585124, “The Interaction of CtIP and Nbs1 Connects CDK and ATM to Regulate HR–Mediated Double-Strand Break Repair” (PLoS Genetics, 2013)

Legend:
Nbs1 1-335 = Nbs1 1-335 (UniProt O60934); experiment: co-expression, GST pull-down, anti-Flag blot; settings: reference: wild-type 200-600 fragment
BRCA1 = BRCA1 (UniProt P38398); experiment: co-immunoprecipitation, HA-CtIP and Myc-BRCA1; settings: reference: wild type; sites S327
[1] = molecular target: T1, GST-CtIP-His (purified CtIP-WT) (human, UniProt Q99708 1-897, phosphorylated by CDKs when expressed in insect cells (sites in Table S2)); experiment: pull-down; purified Nbs1(1–335) or Nbs1(1–335)-RRHK incubated with purified CtIP-WT or CtIP-12A-CDK coupled to glutathione agarose beads; Western blot with anti-His and anti-GST; settings: both partners purified
T1 construct: CtIP, human; also called GST-CtIP WT
T1 sequence (Q99708 whole entry): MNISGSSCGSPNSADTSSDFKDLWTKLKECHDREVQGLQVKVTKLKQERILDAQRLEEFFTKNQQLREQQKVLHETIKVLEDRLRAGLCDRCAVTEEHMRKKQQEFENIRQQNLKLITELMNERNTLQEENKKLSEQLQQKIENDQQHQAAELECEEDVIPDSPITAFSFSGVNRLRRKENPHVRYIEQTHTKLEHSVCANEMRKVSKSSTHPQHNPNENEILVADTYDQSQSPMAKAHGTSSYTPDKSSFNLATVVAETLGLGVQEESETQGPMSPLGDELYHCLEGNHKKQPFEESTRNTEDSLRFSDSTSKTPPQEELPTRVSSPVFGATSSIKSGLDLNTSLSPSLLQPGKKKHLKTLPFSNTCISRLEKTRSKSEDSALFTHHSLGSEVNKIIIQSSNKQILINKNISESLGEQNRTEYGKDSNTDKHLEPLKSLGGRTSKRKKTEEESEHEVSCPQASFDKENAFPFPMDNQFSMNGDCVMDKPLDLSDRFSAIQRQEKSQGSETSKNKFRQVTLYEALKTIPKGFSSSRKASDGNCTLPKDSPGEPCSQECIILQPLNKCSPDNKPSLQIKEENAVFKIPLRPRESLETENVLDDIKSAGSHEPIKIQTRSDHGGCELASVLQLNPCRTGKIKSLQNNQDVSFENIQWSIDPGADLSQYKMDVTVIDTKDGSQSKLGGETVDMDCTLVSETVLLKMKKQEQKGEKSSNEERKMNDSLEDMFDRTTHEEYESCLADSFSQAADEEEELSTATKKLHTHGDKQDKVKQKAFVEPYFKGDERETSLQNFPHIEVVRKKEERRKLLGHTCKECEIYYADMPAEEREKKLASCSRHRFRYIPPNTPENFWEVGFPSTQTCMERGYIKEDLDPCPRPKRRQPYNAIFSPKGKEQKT

CtIP 200-600 (from UniProt Q99708) 5A-CDK
binding against the reference (Nbs1 1-335; sites S233,T245,S276,T315,S347): lost

CtIP 200-600 (from UniProt Q99708) S233A/T245A/S276A (printed S233A/S245A/S276A)
binding against the reference (Nbs1 1-335; sites S233,T245,S276): weaker

CtIP 200-600 (from UniProt Q99708) T245A/S276A/S347A
binding against the reference (Nbs1 1-335; sites T245,S276,S347): weaker

CtIP 200-600 (from UniProt Q99708) T315A/S347A
binding against the reference (Nbs1 1-335; sites T315,S347): weaker

CtIP (from UniProt Q99708) S327A
binding against the reference (BRCA1): weaker

B1: Purified Nbs1(1–335) (domain or fragment, human, UniProt O60934 1-335, looked up)
chain: MWKLLPAAGPAGGEPYRLLTGVEYVVGRKNCAILIENDQSISRNHAVLTANFSVTNLSQTDEIPVLTLKDNSKYGTFVNEEKMQNGFSRTLKSGDGITFGVFGSKFRIEYEPLVACSSCLDVSGKTALNQAILQLGGFTVNNWTEECTHLVMVSVKVTIKTICALICGRPIVKPEYFTEFLKAVESKKQPPQIESFYPPLDEPSIGSKNVDLSGRQERKQIFKGKTFIFLNAKQHKKLSSAVVFGGGEARLITEENEEEHNFFLAPGTCVVDTGITNSQTLIPDCQKKWIQSIMDMLQRQGLRPIPEAEIGLAVIFMTTKNYCDPQGHPSTGLKT
notes: also called Nbs1-WT-N; source: Sf9 insect cells, purified (Ni-NTA column followed by MonoQ column); not shown: His, C-terminal, kept
binding result [1]: binds
